B1: TPR t1 (parent)
chain: GACCAAUCUGCCCUCAGAGCUCGAGAACAUCUUCGGAUGCAGAGGAGGCAGGCUUCGGUGGCGCGAUAGCGCCAACGUCCUCAACCUCCAAUGCAUCCCACCACAUGAUGAUGCCUGAAGAGCCUUGGUUUUUUG

Variants of B1 are the subject of the data set. As to the kind of experiment: polymerase ribozyme fitness, log enrichment relative to wild type (log ratio); higher = more active; in vitro selection for triplet polymerase activity. The method, boiled down:
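Fitness compares each genotype's enrichment to that of the wild type on a logarithmic scale, averaging replicates with inverse-variance weights. The logarithm is base 2. Enrichment came from Illumina sequencing of input and output libraries after one triplicate round of in vitro selection, which included frozen incubation at −7 °C, of PCR-built, transcribed mutant libraries of each subunit of a heterodimeric triplet polymerase ribozyme. Only genotypes with ≥10 input reads and ≥1 read per output were kept.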
On to C72A G93U G110U, for which the “polymerase ribozyme fitness (log ratio)” value is -2.37.

As for U78G C82G, the “polymerase ribozyme fitness (log ratio)” value was -0.36.

Turning to C40A C70U G113A, the “polymerase ribozyme fitness (log ratio)” value was -2.79.

In the case of C11U A46U G47C G52U U55C G117U, the “polymerase ribozyme fitness (log ratio)” value was -6.86.

Consider A74C G117U, for which the “polymerase ribozyme fitness (log ratio)” value was -2.81.

For the variant C3U C70G, the “polymerase ribozyme fitness (log ratio)” value was -2.84.

For C15U A29U, the “polymerase ribozyme fitness (log ratio)” value was -3.13.

Consider U38A G57A U116A G120A, for which the “polymerase ribozyme fitness (log ratio)” value was -4.1.

C34U C88G C123G: the “polymerase ribozyme fitness (log ratio)” value is -3.83.

In the case of C79G U112A, the “polymerase ribozyme fitness (log ratio)” value was -1.41.

For the variant C8A G71U A84C A95G U109A U126A, the “polymerase ribozyme fitness (log ratio)” value was -5.61.

Take G69A C72U: the “polymerase ribozyme fitness (log ratio)” value was -1.06.

For U106G G107A U133A, the “polymerase ribozyme fitness (log ratio)” value is -5.4.

Regarding A29U C34U, the “polymerase ribozyme fitness (log ratio)” value is -4.41.

For C49U C53A, the “polymerase ribozyme fitness (log ratio)” value was -0.289.

On to C4U C15G C28U A121G, for which the “polymerase ribozyme fitness (log ratio)” value was -2.9.

As to U9A U14G A41C G42U G60U G93U A121C, the “polymerase ribozyme fitness (log ratio)” value came out at 0.0286.

Regarding C40G U78A, the “polymerase ribozyme fitness (log ratio)” value was -0.582.

As to A43U G45A C53U C56G C62U A84U, the “polymerase ribozyme fitness (log ratio)” value was -1.89.

As for C20A C70A, the “polymerase ribozyme fitness (log ratio)” value is -4.86.

As for A5U A37C G113U, the “polymerase ribozyme fitness (log ratio)” value is -3.79.

Take C4G C8G U81A A111C: the “polymerase ribozyme fitness (log ratio)” value is -2.27.

For C13U C53G, the “polymerase ribozyme fitness (log ratio)” value was -0.309.

As to C34A A37C C72U A118G, the “polymerase ribozyme fitness (log ratio)” value is -2.87.

Consider C34A G58C G63U, for which the “polymerase ribozyme fitness (log ratio)” value is -4.79.

Regarding C8G A41G A83G G110U A121G, the “polymerase ribozyme fitness (log ratio)” value is -3.81.

On to A5U A6C C8G G47A G113C, for which the “polymerase ribozyme fitness (log ratio)” value is -2.19.

C12U C15U C49A C73G C101U U133G: the “polymerase ribozyme fitness (log ratio)” value was -1.62.

As to A29G C40G A74U U81A U92G C115A, the “polymerase ribozyme fitness (log ratio)” value is -3.87.

As to A41G C56U C72G G113A G128U, the “polymerase ribozyme fitness (log ratio)” value was -5.35.

As to G45A C85U U92C G128A, the “polymerase ribozyme fitness (log ratio)” value was -5.92.

In the case of C56G C94A, the “polymerase ribozyme fitness (log ratio)” value is -0.555.

Take A6U C64U: the “polymerase ribozyme fitness (log ratio)” value was -0.037.

Consider C89A G117A A121U, for which the “polymerase ribozyme fitness (log ratio)” value was -0.932.

For the variant C8G G58A G93U C101U A121C, the “polymerase ribozyme fitness (log ratio)” value amounted to 0.327.

G42U C72G: the “polymerase ribozyme fitness (log ratio)” value is -2.53.

For C15A C53U, the “polymerase ribozyme fitness (log ratio)” value was -1.61.

For C64U G93C, the “polymerase ribozyme fitness (log ratio)” value was -0.827.

C20U C28U C72A C94U: the “polymerase ribozyme fitness (log ratio)” value is -1.9.

As to U9A G47U C79A A83C, the “polymerase ribozyme fitness (log ratio)” value was -3.93.

On to G61U C88G, for which the “polymerase ribozyme fitness (log ratio)” value was -1.3.

Turning to C97G C101U A121C, the “polymerase ribozyme fitness (log ratio)” value was -2.97.

U33C U38G: the “polymerase ribozyme fitness (log ratio)” value was -4.8.

U7A U21C C114A: the “polymerase ribozyme fitness (log ratio)” value is -0.182.

Take C31A A118U: the “polymerase ribozyme fitness (log ratio)” value was -5.02.

Consider G10U G113C G120U A121C, for which the “polymerase ribozyme fitness (log ratio)” value was -2.24.

Take C4G C80A: the “polymerase ribozyme fitness (log ratio)” value is -3.83.

On to C11U A18G G45U G52U G61A A111G U130G U132A, for which the “polymerase ribozyme fitness (log ratio)” value was -6.3.

For the variant G48U U87G A90U, the “polymerase ribozyme fitness (log ratio)” value was -1.49.

For the variant U32C U106G U112G, the “polymerase ribozyme fitness (log ratio)” value was -0.955.

In the case of C12A C70U U78G, the “polymerase ribozyme fitness (log ratio)” value was -1.07.

Consider A43C C70G A111U, for which the “polymerase ribozyme fitness (log ratio)” value was -5.68.

For A41G G110U, the “polymerase ribozyme fitness (log ratio)” value was -1.97.

With C3G A16U C40U C73A, the “polymerase ribozyme fitness (log ratio)” value is -4.45.

U78G C79A A118G U130G: the “polymerase ribozyme fitness (log ratio)” value was -2.19.

Turning to C11G G44A, the “polymerase ribozyme fitness (log ratio)” value is -0.407.

For the variant C28G C76U, the “polymerase ribozyme fitness (log ratio)” value was -3.02.

For the variant C13U G45A A84U U87A, the “polymerase ribozyme fitness (log ratio)” value is -1.98.

In the case of C12U G48A C56G C72U, the “polymerase ribozyme fitness (log ratio)” value was -1.47.

Consider C3A C15A C53U G63C, for which the “polymerase ribozyme fitness (log ratio)” value is -3.45.

Regarding G10U C40G G48U C102U, the “polymerase ribozyme fitness (log ratio)” value was -3.36.

For the variant U9A A27G C114U, the “polymerase ribozyme fitness (log ratio)” value is -1.28.

On to C89A G122A U125G, for which the “polymerase ribozyme fitness (log ratio)” value is -4.57.

In the case of C11U C15A C56G G69U, the “polymerase ribozyme fitness (log ratio)” value was -2.64.

As for U109A U134G, the “polymerase ribozyme fitness (log ratio)” value was -5.32.

Regarding C13U G39U A41G C72U U96G G117A, the “polymerase ribozyme fitness (log ratio)” value is -3.31.

Take C13A G71U: the “polymerase ribozyme fitness (log ratio)” value is -1.35.

Consider A5U C12U G71U, for which the “polymerase ribozyme fitness (log ratio)” value is -0.82.

For the variant G44A U109G, the “polymerase ribozyme fitness (log ratio)” value was -5.09.

As for C88G G113A, the “polymerase ribozyme fitness (log ratio)” value was -1.99.

As for U116G G120C, the “polymerase ribozyme fitness (log ratio)” value is -0.715.

Regarding C12U G63A, the “polymerase ribozyme fitness (log ratio)” value was -0.293.

With C8U A18C A41U A50G C101U, the “polymerase ribozyme fitness (log ratio)” value was -2.01.

Consider C15U G60A U81G C82G A119G G120U C123A, for which the “polymerase ribozyme fitness (log ratio)” value was -1.78.

Regarding A2C U112A G127A, the “polymerase ribozyme fitness (log ratio)” value was -0.337.

Consider G42U U78A, for which the “polymerase ribozyme fitness (log ratio)” value is -2.36.

Take G19U U130G: the “polymerase ribozyme fitness (log ratio)” value was -3.14.

As to G77A C80U, the “polymerase ribozyme fitness (log ratio)” value was -0.237.

Consider C3A C8G A74U A95C G117A G128U, for which the “polymerase ribozyme fitness (log ratio)” value was -0.293.

As for C8A C72U U109G, the “polymerase ribozyme fitness (log ratio)” value is -3.8.

Take U7A G44C C70G: the “polymerase ribozyme fitness (log ratio)” value is -3.95.

Consider U81A C104U, for which the “polymerase ribozyme fitness (log ratio)” value is -0.577.

For the variant C4G A26U A75U, the “polymerase ribozyme fitness (log ratio)” value is -4.4.
